For assay [1], the target named is human GPC3 on tumor cells (membrane-associated GPC3 in FFPE xenograft tissue) (human) (UniProt P51654). Kind of assay: IHC on hepatocellular carcinoma.
For assay [2] the target is unchanged. Kind of assay: IHC on FFPE xenograft tumor tissue, Huh7.
Assay [3] shares this target. Kind of assay: IHC on FFPE xenograft tumor tissue, Hep3B.
For assay [4] the target is unchanged. Kind of assay: IHC on FFPE xenograft tumor tissue, HepG2.
For assay [5] the target is unchanged. Kind of assay: IHC on squamous cell carcinoma of the lung.
Assay [6] has the same target. Kind of assay: IHC on FFPE xenograft tumor tissue, PP5 (PLC/PRF/5).
For assay [7] the target is unchanged. The experiment in a line: IHC on FFPE xenograft tumor tissue; Hep3B, table row 1.
The target is the same in assay [8]. The experiment in a line: IHC on FFPE xenograft tumor tissue; Hep3B, table row 2.
The target is the same in assay [9]. Kind of assay: IHC on FFPE xenograft tumor tissue; Hep3B, table row 3.
For assay [10] the target is unchanged. The experiment in a line: IHC on FFPE xenograft tumor tissue; HepG2, table row 4.
For assay [11] the target is unchanged. Kind of assay: IHC on FFPE xenograft tumor tissue; HepG2, table row 5.
For assay [12] the target is unchanged. Kind of assay: IHC on FFPE xenograft tumor tissue; HepG2, table row 6.
For assay [13] the target is unchanged. Kind of assay: IHC (DAB), implanted HepG2 tumor (GPC3hi), 1G12 at 0.5 µg/mL.
Assay [14] has the same target. The experiment in a line: IHC on FFPE xenograft tumor tissue, cytoplasmic staining; Hep3B, table row 1.
Assay [15] shares this target. The experiment in a line: IHC on FFPE xenograft tumor tissue, cytoplasmic staining; Hep3B, table row 2.
Assay [16] shares this target. The experiment in a line: IHC on FFPE xenograft tumor tissue, cytoplasmic staining; Hep3B, table row 3.
Assay [17] has the same target. Kind of assay: IHC on FFPE xenograft tumor tissue, cytoplasmic staining; HepG2.
For assay [18], the target named is recombinant human glypican-3 (rhGPC3) (human) (UniProt P51654). Kind of assay: BLI; antibody captured on IgG-Fc capture biosensor, antigen as analyte, global 1:1 fit. In general terms: BLI is a label-free optical method that tracks binding on a fibre tip over time.
Assay [19] concerns the target human GPC3 on tumor cells (membrane-associated GPC3 in FFPE xenograft tissue) (human) (UniProt P51654). Kind of assay: IHC (DAB), implanted PP5 tumor (GPC3lo), bottom row of images, 1G12 at 0.5 µg/mL.
The target is the same in assay [20]. Kind of assay: IHC (DAB), implanted PP5 tumor (GPC3lo), middle row of images, 1G12 at 0.5 µg/mL.
The target of assay [21] is recombinant human glypican-3 (rhGPC3) (human) (UniProt P51654). The experiment in a line: BLI; antibody captured on IgG-Fc capture biosensor, antigen as analyte from 100 nM, 1:3 dilutions, global 1:1 fit.
The target in assay [22] is human GPC3 on tumor cells (membrane-associated GPC3 in FFPE xenograft tissue) (human) (UniProt P51654). The experiment in a line: IHC on FFPE xenograft tumor tissue; HepG2, table row 5 (so in the source); the four percentages of the row add up to 105.
For assay [23] the target is unchanged. Kind of assay: IHC on FFPE xenograft tumor tissue; Hep3B, table row 3 (so in the source); does not fit the 90 and the 255 of the same row.
Assay [24] addresses recombinant human glypican-3 (rhGPC3) (human) (UniProt P51654). Kind of assay: BLI; humanized GC33 captured on anti-human IgG-Fc biosensor, antigen as analyte from 100 nM, 1:3 dilutions, global 1:1 fit.
Assay [25] concerns the target T1, recombinant human glypican-5 (rhGPC5) (human, UniProt P78333 25-551, limits assumed).
T1 sequence (looked up): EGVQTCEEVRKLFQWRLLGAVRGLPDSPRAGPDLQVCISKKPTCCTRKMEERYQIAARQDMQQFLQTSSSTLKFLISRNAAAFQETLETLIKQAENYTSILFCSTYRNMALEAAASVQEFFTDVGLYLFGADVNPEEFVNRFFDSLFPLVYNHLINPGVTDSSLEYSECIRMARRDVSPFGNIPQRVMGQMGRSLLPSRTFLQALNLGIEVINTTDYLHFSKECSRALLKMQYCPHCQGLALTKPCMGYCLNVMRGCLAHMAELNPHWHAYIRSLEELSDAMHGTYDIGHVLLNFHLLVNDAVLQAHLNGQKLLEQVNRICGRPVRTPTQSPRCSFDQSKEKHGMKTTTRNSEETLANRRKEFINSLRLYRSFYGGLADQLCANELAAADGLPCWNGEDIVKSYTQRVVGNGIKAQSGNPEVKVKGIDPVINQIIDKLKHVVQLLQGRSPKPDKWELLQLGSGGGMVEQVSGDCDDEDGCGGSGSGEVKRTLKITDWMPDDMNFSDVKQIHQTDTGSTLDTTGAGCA
Kind of assay: western blot, primary antibody 1 ug/mL. (In general: A western blot detects proteins with antibodies after separation by electrophoresis.)

Assay [26] concerns the target T2, recombinant human glypican-6 (rhGPC6) (human, UniProt Q9Y625 24-529, limits assumed).
T2 sequence (looked up): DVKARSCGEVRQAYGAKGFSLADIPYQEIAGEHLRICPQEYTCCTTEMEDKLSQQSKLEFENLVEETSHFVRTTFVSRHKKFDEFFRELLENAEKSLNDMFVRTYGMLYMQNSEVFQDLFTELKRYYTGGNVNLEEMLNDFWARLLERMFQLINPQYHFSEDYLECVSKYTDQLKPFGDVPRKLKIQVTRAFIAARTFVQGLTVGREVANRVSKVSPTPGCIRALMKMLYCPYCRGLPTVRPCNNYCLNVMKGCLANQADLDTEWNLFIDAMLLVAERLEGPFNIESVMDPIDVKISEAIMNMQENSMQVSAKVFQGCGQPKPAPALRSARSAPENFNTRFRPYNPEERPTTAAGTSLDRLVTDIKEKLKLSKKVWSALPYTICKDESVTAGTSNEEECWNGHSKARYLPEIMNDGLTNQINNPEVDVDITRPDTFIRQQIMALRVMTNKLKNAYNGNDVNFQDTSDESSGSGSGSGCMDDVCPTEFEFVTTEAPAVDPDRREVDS
Kind of assay: western blot, primary antibody 1 ug/mL.

The target of assay [27] is recombinant human glypican-3 (rhGPC3) (human) (UniProt P51654). The experiment in a line: BLI; antibody captured on anti-mouse IgG-Fc biosensor, antigen as analyte, global 1:1 fit.
Assay [28] shares this target. Kind of assay: BLI in-tandem cross-competition; buffer only, no saturating antibody (maximal binding reference).
Assay [29] has the same target. Kind of assay: BLI; antibody captured on anti-mouse IgG-Fc biosensor, antigen as analyte from 100 nM, 1:3 dilutions, global 1:1 fit.
Assay [30] shares this target. The experiment in a line: BLI in-tandem cross-competition; biotinylated antigen on SA biosensor saturated with 150 nM GC33 (competitor), then 150 nM 204.
Assay [31] shares this target. The experiment in a line: BLI in-tandem cross-competition; biotinylated antigen on SA biosensor saturated with 150 nM 204 (self-blocking), then 150 nM 204.

3 molecules from patent US20250085287A1 (ADICET THERAPEUTICS, published 2025) can be followed below.

The koff is a measure of how fast the partners let go of each other. In general, kon refers to the second-order rate constant of association. Broadly, the Kd is a measure of binding affinity in units of concentration.

Chain of human GPC3 on tumor cells (membrane-associated GPC3 in FFPE xenograft tissue) (human) (P51654 25-554 limits assumed): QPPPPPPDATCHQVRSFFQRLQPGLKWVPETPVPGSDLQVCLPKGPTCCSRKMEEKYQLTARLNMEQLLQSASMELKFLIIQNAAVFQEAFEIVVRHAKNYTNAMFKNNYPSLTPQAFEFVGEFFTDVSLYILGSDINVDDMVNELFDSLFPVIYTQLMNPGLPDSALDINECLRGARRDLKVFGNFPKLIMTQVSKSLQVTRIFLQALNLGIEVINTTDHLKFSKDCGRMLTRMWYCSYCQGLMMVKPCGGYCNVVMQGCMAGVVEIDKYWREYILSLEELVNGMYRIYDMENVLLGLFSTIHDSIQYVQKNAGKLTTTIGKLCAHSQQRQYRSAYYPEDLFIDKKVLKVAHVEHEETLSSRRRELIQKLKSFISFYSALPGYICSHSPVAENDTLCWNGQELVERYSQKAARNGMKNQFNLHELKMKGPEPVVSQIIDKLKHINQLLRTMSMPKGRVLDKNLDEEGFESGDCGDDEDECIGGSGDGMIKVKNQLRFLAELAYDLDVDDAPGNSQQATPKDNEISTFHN
Chain of recombinant human glypican-3 (rhGPC3) (human) (P51654 25-559): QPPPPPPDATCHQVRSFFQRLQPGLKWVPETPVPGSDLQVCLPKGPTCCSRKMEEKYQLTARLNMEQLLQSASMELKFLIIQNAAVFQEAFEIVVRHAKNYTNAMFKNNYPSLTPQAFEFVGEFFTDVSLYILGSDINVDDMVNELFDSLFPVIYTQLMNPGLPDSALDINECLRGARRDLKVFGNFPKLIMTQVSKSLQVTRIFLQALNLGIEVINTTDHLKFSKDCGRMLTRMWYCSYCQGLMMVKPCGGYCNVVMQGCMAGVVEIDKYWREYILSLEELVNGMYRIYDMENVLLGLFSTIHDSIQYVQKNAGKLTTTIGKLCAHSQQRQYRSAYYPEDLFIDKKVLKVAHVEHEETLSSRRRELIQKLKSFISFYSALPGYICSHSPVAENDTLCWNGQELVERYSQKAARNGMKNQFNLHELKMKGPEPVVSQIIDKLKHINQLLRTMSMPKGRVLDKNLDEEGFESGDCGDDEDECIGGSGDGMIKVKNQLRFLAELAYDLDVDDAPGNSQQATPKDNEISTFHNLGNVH

Consider 1G12 anti-GPC3 monoclonal antibody, for which the Membrane-bound GPC3 H-score turned out to be 110 in [1]; 80 in assay [2]; 265 in assay [3]; 260 in assay [4]; 90 in [5]; 75 in [6]. The % Tumor Cells Positive - Membranous Staining, intensity 0 in [7] was found to be 5%; in assay [8] it was 0%; in assay [9], 5%; in [10] it was 5%; in assay [11], 5%; in [12], 5%. Also, the % Tumor Cells Positive - Membranous Staining, intensity 1+ in [7] amounted to 5%; in [8], 5%; in assay [9], 5%; in assay [10], 20%; in assay [11] it was 10%; in assay [12], 10%. For the same molecule, the % Tumor Cells Positive - Membranous Staining, intensity 2+ is 10% in assay [7]; 15% in [8]; 20% in assay [9]; 50% in [10]; 45% in assay [11]; 5% in assay [12]. Also, the % Tumor Cells Positive - Membranous Staining, intensity 3+ in assay [7] was 80%; in assay [8], 80%; in assay [10] it was 25%; in assay [12] it was 80%; in assay [22], 45%; in [23], 20%. Also, the H-Score (membranous staining) in assay [7] turned out to be 265; in [8] it was 275; in [9], 255; in assay [10], 195; in assay [11], 220; in assay [12], 260. In addition, the Mod/High Intensity (2/3+) is 90% in assay [7]; 95% in assay [8]; 90% in assay [9]; 75% in [10]; 85% in [11]; 85% in assay [12]. For the same molecule, the figures for the Membrane-associated H-Score in [13], in [19] and in assay [20] were 285, 90 and 130, respectively. Moreover, the Average Intensity of cytoplasmic staining in assay [14] is 1 +; in assay [15], 1 +; in assay [16], 1 +; in [17] it was 2 +. Further, the koff in assay [18] turned out to be 0.00053 s⁻¹. Besides, the on-rate constant (kon) in assay [18] came to 170000 M⁻¹ s⁻¹. The Kd in assay [21] came out at 3 nM.
In the case of GC33 anti-GPC3 antibody, the Kd in [24] was 1 nM.

B1: 204 monoclonal antibody (mouse anti-human GPC3) (antibody, IgG2b, V domains shown)
VH: EVQLQQSGPELVKPGASVKISCKTSGYTFTEYAMHWVKQSHGKSLEWIGGINPNNGVTTYNQRFKGKATLTVDKSSSTAYMELRSLTSEDSAVYYCARGLLWYAYWGQGTLVTVSA
VL: DIKMTQSPSSMYASLGERVTITCKASQDINSYLSWFQQKPGKSPKTLIYRANRLVDGVPSRFSGSGSGQDYSLTISSLEYEDMGIYYCLQYDEFPLTFGAGTKLELK
notes: also called GPC.204
Consider B1, for which the binding result in assay [25] and in assay [26] was “no binding” each time. Besides, in assay [27], the koff is 0.0021 s⁻¹. Also, the kon in [27] turned out to be 820000 M⁻¹ s⁻¹. Also, the % Binding of Competing Antibody in assay [28] was found to be 100%; in assay [30], 89.9%; in assay [31], 18.2%. Also, in [29], the Kd came out at 2.5 nM.
